In PMC10311354, “RNA-binding is an ancient trait of the Annexin family” (Frontiers in Cell and Developmental Biology, 2023):

B1: rat Annexin A1 (natural protein, UniProt P07150 1-346, looked up)
chain: MAMVSEFLKQACYIEKQEQEYVQAVKSYKGGPGSAVSPYPSFNPSSDVAALHKAIMVKGVDEATIIDILTKRTNAQRQQIKAAYLQETGKPLDETLKKALTGHLEEVVLAMLKTPAQFDADELRAAMKGLGTDEDTLIEILTTRSNQQIREITRVYREELKRDLAKDITSDTSGDFRNALLALAKGDRCEDMSVNQDLADTDARALYEAGERRKGTDVNVFNTILTTRSYPHLRKVFQNYRKYSQHDMNKALDLELKGDIEKCLTTIVKCATSTPAFFAEKLYEAMKGAGTRHKTLIRIMVSRSEIDMNEIKVFYQKKYGIPLCQAILDETKGDYEKILVALCGGN
notes: Annexin A1, rat, isoform X1, 346 aa, cDNA by RT-PCR from PC12 cells; The forward primer puts ATGGGT before the natural start codon, so Met-Gly may precede the natural Met; also called AnxA1; source: E. coli BL21 (DE3), purified (Ni2+-NTA, size exclusion chromatography)
B2: rat Annexin A3 (natural protein, UniProt P14669 1-324, looked up)
chain: MAASLWVGPRGTINNYPGFNPSVDAEAIRKAIKGIGTDEKTLINILTERSNAQRQLIVKQYQEAYEQALKADLKGDLSGHFEHVMVALITAPAVFDAKQLKKSMRGMGTDEDTLIEILTTRTSRQMKEISQAYYTAYKKNLRDDISSETSGDFRKALLTLADGGRDESLKVDEHLAKKDAQTLYDAGEKKWGTDEDKFTEILCLRSFPQLKLTFDEYRNISQKDIEDSIKGELSGHFEDLLLAVVRCTRNTPAFLAGRLHQALKGAGTDEFTLNRIMVSRSEIDLLDIRREFKKHYGCSLYSAIQSDTSGDYRTVLLKICGGDD
notes: The forward primer puts ATGGGT before the natural start codon, so Met-Gly may precede the natural Met; also called AnxA3; source: E. coli BL21 (DE3), purified (Ni2+-NTA, size exclusion chromatography)
B3: rat Annexin A8 (natural protein, UniProt Q4FZU6 1-327, looked up)
chain: MAWWKAWVEQEGVSVKGSSHFNPDPDAETLYKAMKGIGTNEQAIIDVLTKRSNVQRQQIAKSFKAQFGKDLTETLKSELSGKFERLIVALMYPPYRYEAKELHDAMKGLGTKEGVIIEILASRTKNQLREIMKAYEEDYGSTLEEDIQGDTSGYLERILVCLLQGCRDDVSGFVDPGLALQDAQDLHAAGEKILGTDEMKFITILCTRSATHLMRVFEEYEKIANKSIEDSIKSETHGSLEEAMLTVVKCTRNVHSYFAERLYYAMKGAGTLDGTLIRNIVSRSEIDLNLIKSQFQKMYGKTLSSMIMGDTSGYYKTALLNLVGTDL
notes: Annexin A8, rat, 327 aa, cDNA from total RNA of rat lung; The forward primer puts ATGGGT before the natural start codon, so Met-Gly may precede the natural Met; also called AnxA8; source: E. coli BL21 (DE3), purified (Ni2+-NTA, size exclusion chromatography)
B4: rat Annexin A2 (natural protein, UniProt Q07936 1-339, looked up)
chain: MSTVHEILCKLSLEGDHSTPPSAYGSVKPYTNFDAERDALNIETAIKTKGVDEVTIVNILTNRSNAQRQDIAFAYQRRTKKELPSAMKSALSGHLETVMLGLLKTPAQYDASELKASMKGLGTDEDSLIEIICSRTNQELQEINRVYKEMYKTDLEKDIISDTSGEFRKLLVALAKGKRAEDGSVIDYELIDQDARELYDAGVKRKGTDVPKWISIMTERSVCHLQKVFERYKSYSPYDMLESIRKEVKGDLENAFLNLVQCIQNKPLYFADRLYDSMKGKGTRDKVLIRIMVSRSEVDMLKIRSEFKRKYGKSLYYFIQQDTKGDYQKALLYLCGGDD
notes: The forward primer puts ATGGGT before the natural start codon, so Met-Gly may precede the natural Met; also called AnxA2; source: E. coli BL21 (DE3), purified (Ni2+-NTA, size exclusion chromatography)

Legend:
[1] = system: Δ188AnxA11 (Rattus norvegicus); experiment: BLI; details: RNA-binding buffer: 10 mM triethanolamine pH 7.4, 50 mM KCl, 1 mM DTT, 2 mM MgSO4, 100 uM CaCl2; spot blot at RT, blocked with 1 mg/mL tRNA; BLI temperature …
[2] = system: AnxA13 (Rattus norvegicus); experiment: BLI; details: RNA-binding buffer: 10 mM triethanolamine pH 7.4, 50 mM KCl, 1 mM DTT, 2 mM MgSO4, 100 uM CaCl2; spot blot at RT, blocked with 1 mg/mL tRNA; BLI temperature …
[3] = system: AnxA2 (Rattus norvegicus); experiment: BLI; details: RNA-binding buffer: 10 mM triethanolamine pH 7.4, 50 mM KCl, 1 mM DTT, 2 mM MgSO4, 100 uM CaCl2; spot blot at RT, blocked with 1 mg/mL tRNA; BLI temperature …
[4] = system: Δ142AnxA7 (Rattus norvegicus); experiment: BLI; details: RNA-binding buffer: 10 mM triethanolamine pH 7.4, 50 mM KCl, 1 mM DTT, 2 mM MgSO4, 100 uM CaCl2; spot blot at RT, blocked with 1 mg/mL tRNA; BLI temperature …
[5] = target: the molecule itself; experiment: SDS-PAGE (Coomassie Brilliant Blue staining); purified recombinant rat Anxs on 4%-15% SDS-PAGE, denaturation buffer with beta-mercaptoethanol; dimeric forms seen as faint bands beside the monomer; nature of the dimers not known (disulfide or tight noncovalent)

| Molecule | Kd [1] | Kd [2] | Kd [3] | Kd [4] | binding result [5] |
| --- | --- | --- | --- | --- | --- |
| anxA2 3'UTR | > 500 nM | 246 nM | 192 nM | 174 nM |  |
| c-myc 3'UTR | 124 nM | 130 nM | 73.9 nM | 126 nM |  |
| c-myc 5'UTR |  |  | 37.2 nM |  |  |
| B1 |  |  |  |  | binds |
| B2 |  |  |  |  | binds |
| B3 |  |  |  |  | binds |
| B4 |  |  |  |  | binds |
